Data published in FireProtDB (doi:10.1021/bi00212a026).

B1: Ribonuclease, P00648 (parent)
chain: MMKMEGIALKKRLSWISVCLLVLVSAAGMLFSTAAKTETSSHKAHTEAQVINTFDGVADYLQTYHKLPDNYITKSEAQALGWVASKGNLADVAPGKSIGGDIFSNREGKLPGKSGRTWREADINYTSGFRNSDRILYSSDWLIYKTTDHYQTFTKIR

Variants of: B1
Conditions: Bacillus amyloliquefaciens; pH 6.3; 25 °C; Urea; Fluorescence; MES 50 mM; NaCl 0.15 M; reversible: yes; structure 1BNI; whole UniProt chain shown

In the case of I51A I98V, the “ddG of mutation (higher = less stable)” value is reported as 2.63 kcal/mol, the denaturant m value is reported as 2.11 kcal/mol/M and the “denaturant midpoint (higher = more stable)” value (from here on “denaturant midpoint”) is reported as 2.92 M. For the same variant, the unfolding free energy was 6.16 kcal/mol.

With I51A I123V the “ddG of mutation (higher = less stable)” value was 1.86 kcal/mol, the denaturant m value was 1.92 kcal/mol/M and the “denaturant midpoint” value was 3.61 M. For the same variant, the unfolding free energy was 6.93 kcal/mol.

In the case of I51A Y125F, the “ddG of mutation (higher = less stable)” value is reported as 2.53 kcal/mol, the denaturant m value is reported as 1.95 kcal/mol/M and the “denaturant midpoint” value is reported as 3.21 M. It also gave an unfolding free energy of 6.26 kcal/mol.

For I123T, the “ddG of mutation (higher = less stable)” value was 2.69 kcal/mol, the denaturant m value was 1.87 kcal/mol/M and the “denaturant midpoint” value was 3.26 M. It also gave an unfolding free energy of 6.1 kcal/mol.
